Measurements: patent publication US20140087995A1 (published 2014)
Numbered stars: 1 amine (or outer) side, 2 acyl side, 3 side chain; on linkers, the order of the positions; unused ones are H or OH. Bridge positions count the residues as written; N and C are the ends. Side chains are listed from the residue outwards. Ends that are not written are not given here. * marks the point of attachment. C20 diacid = O=C(O)CCCCCCCCCCCCCCCCCCC(=O)*; γGlu = O=C(O)[C@H](CCC(=O)[*:2])N[*:1]

T1: rat amylin receptor (rat calcitonin receptor + rat RAMP 3) (rat, UniProt P32214 25-516; Q9JJ73 23-147)
T1 construct: whole, on cells; also called rAmylin-R; rat amylin 3(a) receptor
T1 sequence (looked up) 1: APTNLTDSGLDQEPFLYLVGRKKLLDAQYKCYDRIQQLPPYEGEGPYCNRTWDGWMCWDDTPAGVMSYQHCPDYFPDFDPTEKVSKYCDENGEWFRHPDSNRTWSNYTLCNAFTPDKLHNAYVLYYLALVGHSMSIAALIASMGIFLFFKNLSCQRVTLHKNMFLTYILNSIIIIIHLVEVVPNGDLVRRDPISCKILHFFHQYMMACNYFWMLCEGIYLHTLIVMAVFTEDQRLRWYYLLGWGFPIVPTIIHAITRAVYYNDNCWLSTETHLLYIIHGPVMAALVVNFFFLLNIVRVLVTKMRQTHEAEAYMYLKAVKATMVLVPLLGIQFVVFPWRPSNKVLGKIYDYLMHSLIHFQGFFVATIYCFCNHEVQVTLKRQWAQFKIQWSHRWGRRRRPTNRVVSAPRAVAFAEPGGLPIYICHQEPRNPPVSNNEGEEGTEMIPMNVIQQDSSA
T1 sequence (looked up) 2: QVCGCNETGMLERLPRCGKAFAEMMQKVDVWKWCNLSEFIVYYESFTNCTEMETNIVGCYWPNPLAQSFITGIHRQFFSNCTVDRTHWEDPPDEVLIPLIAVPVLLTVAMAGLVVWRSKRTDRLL

T2: rat calcitonin receptor (rat, UniProt P32214 25-516)
T2 construct: whole, on cells; also called rCTR; rat calcitonin (a) receptor
T2 sequence (looked up): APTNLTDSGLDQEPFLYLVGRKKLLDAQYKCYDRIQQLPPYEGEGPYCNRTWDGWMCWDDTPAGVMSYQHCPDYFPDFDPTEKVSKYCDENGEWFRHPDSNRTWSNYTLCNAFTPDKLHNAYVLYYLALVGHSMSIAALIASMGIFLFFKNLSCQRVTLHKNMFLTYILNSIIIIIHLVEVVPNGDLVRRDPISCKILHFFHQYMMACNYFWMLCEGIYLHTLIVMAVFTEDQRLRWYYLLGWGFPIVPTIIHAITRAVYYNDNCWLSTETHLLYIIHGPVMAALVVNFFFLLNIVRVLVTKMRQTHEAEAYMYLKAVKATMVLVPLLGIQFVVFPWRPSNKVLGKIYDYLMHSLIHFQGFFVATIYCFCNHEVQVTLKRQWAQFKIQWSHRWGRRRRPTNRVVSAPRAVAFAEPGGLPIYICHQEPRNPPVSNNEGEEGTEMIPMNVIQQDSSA

T3: human calcitonin receptor (human, UniProt P30988 25-474)
T3 construct: whole, on cells; also called hCTR; hCT
T3 sequence (looked up): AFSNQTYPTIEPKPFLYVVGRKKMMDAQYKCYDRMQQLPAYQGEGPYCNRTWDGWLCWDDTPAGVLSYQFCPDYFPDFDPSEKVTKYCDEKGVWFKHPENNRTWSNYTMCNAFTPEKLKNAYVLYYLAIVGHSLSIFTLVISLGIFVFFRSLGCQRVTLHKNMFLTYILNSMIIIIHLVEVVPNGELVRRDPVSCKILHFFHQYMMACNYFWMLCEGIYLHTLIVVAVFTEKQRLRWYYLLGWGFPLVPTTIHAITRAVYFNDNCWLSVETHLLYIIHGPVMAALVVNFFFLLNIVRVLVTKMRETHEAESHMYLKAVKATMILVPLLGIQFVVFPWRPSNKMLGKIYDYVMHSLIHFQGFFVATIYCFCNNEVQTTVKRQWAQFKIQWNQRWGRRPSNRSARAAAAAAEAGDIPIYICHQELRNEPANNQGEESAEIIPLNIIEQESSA


Legend:
[1] = target: T1, rat amylin receptor (rat calcitonin …); assay: SPA competition with 125I-rat amylin, membranes of BHK cells with rat calcitonin receptor + rat RAMP3 (Assay VI)
rat calcitonin receptor [2] = target: T2, rat calcitonin receptor; assay: SPA competition with 125I-calcitonin, membranes of BHK cells with rat calcitonin receptor (Assay VIII)
[3] = target: T3, human calcitonin receptor; assay: ratio of binding IC50s: human calcitonin receptor over human amylin receptor (reference)
Method in brief: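 IC₅₀ values were derived by one-site competition analysis of SPA counts. Cell membranes (35 ng/μL) with SPA beads were incubated with test compounds for 120 min at 25° C in Hepes buffer, pH 7.4, containing CaCl2, MgCl₂, OA and Tween20.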

rat calcitonin receptor [4] = target: T2, rat calcitonin receptor; assay: ratio of binding IC50s: rat calcitonin receptor over rat amylin receptor (reference)

| Binder | IC50 [1] [nM] | IC50 (rat calcitonin receptor [2]) [nM] | Ratio hCT/hAmylin binding [3] | Ratio rCT/rAmylin binding (rat calcitonin receptor [4]) |
| --- | --- | --- | --- | --- |
| K([γGlu-C20 diacid])CNTATCATQRLANFLRHSSPNFGAIPSSTNVGRNTY-NH2 (disulfide 2-7; N-terminus assumed; SMILES CC[C@H](C)[C@H](NC(=O)[C@H](C)NC(=O)CNC(=O)[C@H](Cc1ccccc1)NC(=O)[C@H](CC(N)=O)NC(=O)[C@@H]1CCCN1C(=O)[C@H](CO)NC(=O)[C@H](CO)NC(=O)[C@H](Cc1c[nH]cn1)NC(=O)[C@H](CCCNC(=N)N)NC(=O)[C@H](CC(C)C)NC(=O)[C@H](Cc1ccccc1)NC(=O)[C@H](CC(N)=O)NC(=O)[C@H](C)NC(=O)[C@H](CC(C)C)NC(=O)[C@H](CCCNC(=N)N)NC(=O)[C@H](CCC(N)=O)NC(=O)[C@@H](NC(=O)[C@H](C)NC(=O)[C@@H]1CSSC[C@H](NC(=O)[C@@H](N)CCCCNC(=O)CC[C@H](NC(=O)CCCCCCCCCCCCCCCCCCC(=O)O)C(=O)O)C(=O)N[C@@H](CC(N)=O)C(=O)N[C@@H]([C@@H](C)O)C(=O)N[C@@H](C)C(=O)N[C@@H]([C@@H](C)O)C(=O)N1)[C@@H](C)O)C(=O)N1CCC[C@H]1C(=O)N[C@@H](CO)C(=O)N[C@@H](CO)C(=O)N[C@H](C(=O)N[C@@H](CC(N)=O)C(=O)N[C@H](C(=O)NCC(=O)N[C@@H](CCCNC(=N)N)C(=O)N[C@@H](CC(N)=O)C(=O)N[C@H](C(=O)N[C@@H](Cc1ccc(O)cc1)C(N)=O)[C@@H](C)O)C(C)C)[C@@H](C)O, synthetic analogue of human amylin; also called compound 79) [N^ε1-[(4S)-4-carboxy-4-(19-carboxynonadecanoylamino)butanoyl]-[Arg17,Pro21,Pro27,Arg34]-h-amylin] | 1.65 | 35.5 | 46.1 | 21.5 |
| K([γGlu-C20 diacid])CNTATCATQRLARFLRHSSPNFGAIPSSTNVGSNTY-NH2 (disulfide 2-7; N-terminus assumed; SMILES CC[C@H](C)[C@H](NC(=O)[C@H](C)NC(=O)CNC(=O)[C@H](Cc1ccccc1)NC(=O)[C@H](CC(N)=O)NC(=O)[C@@H]1CCCN1C(=O)[C@H](CO)NC(=O)[C@H](CO)NC(=O)[C@H](Cc1c[nH]cn1)NC(=O)[C@H](CCCNC(=N)N)NC(=O)[C@H](CC(C)C)NC(=O)[C@H](Cc1ccccc1)NC(=O)[C@H](CCCNC(=N)N)NC(=O)[C@H](C)NC(=O)[C@H](CC(C)C)NC(=O)[C@H](CCCNC(=N)N)NC(=O)[C@H](CCC(N)=O)NC(=O)[C@@H](NC(=O)[C@H](C)NC(=O)[C@@H]1CSSC[C@H](NC(=O)[C@@H](N)CCCCNC(=O)CC[C@H](NC(=O)CCCCCCCCCCCCCCCCCCC(=O)O)C(=O)O)C(=O)N[C@@H](CC(N)=O)C(=O)N[C@@H]([C@@H](C)O)C(=O)N[C@@H](C)C(=O)N[C@@H]([C@@H](C)O)C(=O)N1)[C@@H](C)O)C(=O)N1CCC[C@H]1C(=O)N[C@@H](CO)C(=O)N[C@@H](CO)C(=O)N[C@H](C(=O)N[C@@H](CC(N)=O)C(=O)N[C@H](C(=O)NCC(=O)N[C@@H](CO)C(=O)N[C@@H](CC(N)=O)C(=O)N[C@H](C(=O)N[C@@H](Cc1ccc(O)cc1)C(N)=O)[C@@H](C)O)C(C)C)[C@@H](C)O, synthetic analogue of human amylin; also called compound 83) [N^ε1-[(4S)-4-carboxy-4-(19-carboxynonadecanoylamino)butanoyl]-[Arg14,Arg17,Pro21,Pro27]-h-amylin] | 2.83 | 140 | 146 | 49.7 |

Results, then the binder that gave them:

| IC50 [1] [nM] | IC50 (rat calcitonin receptor [2]) [nM] | Ratio hCT/hAmylin binding [3] | Ratio rCT/rAmylin binding (rat calcitonin receptor [4]) | Binder |
| --- | --- | --- | --- | --- |
| 3.48 | 124 | 157 | 35.6 | K([γGlu-C20 diacid])CNTATCATQRLARFLRHSSPNFGAIPSSTPVGSNTY-NH2 (disulfide 2-7; N-terminus assumed; SMILES CC[C@H](C)[C@H](NC(=O)[C@H](C)NC(=O)CNC(=O)[C@H](Cc1ccccc1)NC(=O)[C@H](CC(N)=O)NC(=O)[C@@H]1CCCN1C(=O)[C@H](CO)NC(=O)[C@H](CO)NC(=O)[C@H](Cc1c[nH]cn1)NC(=O)[C@H](CCCNC(=N)N)NC(=O)[C@H](CC(C)C)NC(=O)[C@H](Cc1ccccc1)NC(=O)[C@H](CCCNC(=N)N)NC(=O)[C@H](C)NC(=O)[C@H](CC(C)C)NC(=O)[C@H](CCCNC(=N)N)NC(=O)[C@H](CCC(N)=O)NC(=O)[C@@H](NC(=O)[C@H](C)NC(=O)[C@@H]1CSSC[C@H](NC(=O)[C@@H](N)CCCCNC(=O)CC[C@H](NC(=O)CCCCCCCCCCCCCCCCCCC(=O)O)C(=O)O)C(=O)N[C@@H](CC(N)=O)C(=O)N[C@@H]([C@@H](C)O)C(=O)N[C@@H](C)C(=O)N[C@@H]([C@@H](C)O)C(=O)N1)[C@@H](C)O)C(=O)N1CCC[C@H]1C(=O)N[C@@H](CO)C(=O)N[C@@H](CO)C(=O)N[C@H](C(=O)N1CCC[C@H]1C(=O)N[C@H](C(=O)NCC(=O)N[C@@H](CO)C(=O)N[C@@H](CC(N)=O)C(=O)N[C@H](C(=O)N[C@@H](Cc1ccc(O)cc1)C(N)=O)[C@@H](C)O)C(C)C)[C@@H](C)O, synthetic analogue of human amylin; also called compound 63) |
| 1.5 | 205 | 118 | 137 | K([γGlu-C20 diacid])CNTATCATQRLANFLRHSSPNFGAIPSSTNVGHNTY-NH2 (disulfide 2-7; N-terminus assumed; SMILES CC[C@H](C)[C@H](NC(=O)[C@H](C)NC(=O)CNC(=O)[C@H](Cc1ccccc1)NC(=O)[C@H](CC(N)=O)NC(=O)[C@@H]1CCCN1C(=O)[C@H](CO)NC(=O)[C@H](CO)NC(=O)[C@H](Cc1c[nH]cn1)NC(=O)[C@H](CCCNC(=N)N)NC(=O)[C@H](CC(C)C)NC(=O)[C@H](Cc1ccccc1)NC(=O)[C@H](CC(N)=O)NC(=O)[C@H](C)NC(=O)[C@H](CC(C)C)NC(=O)[C@H](CCCNC(=N)N)NC(=O)[C@H](CCC(N)=O)NC(=O)[C@@H](NC(=O)[C@H](C)NC(=O)[C@@H]1CSSC[C@H](NC(=O)[C@@H](N)CCCCNC(=O)CC[C@H](NC(=O)CCCCCCCCCCCCCCCCCCC(=O)O)C(=O)O)C(=O)N[C@@H](CC(N)=O)C(=O)N[C@@H]([C@@H](C)O)C(=O)N[C@@H](C)C(=O)N[C@@H]([C@@H](C)O)C(=O)N1)[C@@H](C)O)C(=O)N1CCC[C@H]1C(=O)N[C@@H](CO)C(=O)N[C@@H](CO)C(=O)N[C@H](C(=O)N[C@@H](CC(N)=O)C(=O)N[C@H](C(=O)NCC(=O)N[C@@H](Cc1c[nH]cn1)C(=O)N[C@@H](CC(N)=O)C(=O)N[C@H](C(=O)N[C@@H](Cc1ccc(O)cc1)C(N)=O)[C@@H](C)O)C(C)C)[C@@H](C)O, synthetic analogue of human amylin; also called compound 77) [N^ε1-[(4S)-4-carboxy-4-(19-carboxynonadecanoylamino)butanoyl]-[Arg17,Pro21,Pro27,His34]-h-amylin] |
| 1.16 | 108 | 82.4 | 93.2 | K([γGlu-C20 diacid])CNTATCATQRLARFLRHSSPNFGAIPSSTNVGPNTY-NH2 (disulfide 2-7; N-terminus assumed; SMILES CC[C@H](C)[C@H](NC(=O)[C@H](C)NC(=O)CNC(=O)[C@H](Cc1ccccc1)NC(=O)[C@H](CC(N)=O)NC(=O)[C@@H]1CCCN1C(=O)[C@H](CO)NC(=O)[C@H](CO)NC(=O)[C@H](Cc1c[nH]cn1)NC(=O)[C@H](CCCNC(=N)N)NC(=O)[C@H](CC(C)C)NC(=O)[C@H](Cc1ccccc1)NC(=O)[C@H](CCCNC(=N)N)NC(=O)[C@H](C)NC(=O)[C@H](CC(C)C)NC(=O)[C@H](CCCNC(=N)N)NC(=O)[C@H](CCC(N)=O)NC(=O)[C@@H](NC(=O)[C@H](C)NC(=O)[C@@H]1CSSC[C@H](NC(=O)[C@@H](N)CCCCNC(=O)CC[C@H](NC(=O)CCCCCCCCCCCCCCCCCCC(=O)O)C(=O)O)C(=O)N[C@@H](CC(N)=O)C(=O)N[C@@H]([C@@H](C)O)C(=O)N[C@@H](C)C(=O)N[C@@H]([C@@H](C)O)C(=O)N1)[C@@H](C)O)C(=O)N1CCC[C@H]1C(=O)N[C@@H](CO)C(=O)N[C@@H](CO)C(=O)N[C@H](C(=O)N[C@@H](CC(N)=O)C(=O)N[C@H](C(=O)NCC(=O)N1CCC[C@H]1C(=O)N[C@@H](CC(N)=O)C(=O)N[C@H](C(=O)N[C@@H](Cc1ccc(O)cc1)C(N)=O)[C@@H](C)O)C(C)C)[C@@H](C)O, synthetic analogue of human amylin; also called compound 65) |
